B1: ZC3H15 (parent)
chain: ENLFTGEDLDELEEELNTLDLEE

Variants of: B1
Assay: protein stability index of a GFP-peptide fusion (GPS, HEK-293T) (PSI 1-6); higher = more stable
Details: c terminus: native
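Also: lentivirally expressed fusions sorted by FACS into six bins by GFP to DsRed ratio, PSI derived from sequencing read proportions per bin multiplied by bin number.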

Protein stability index: each site, then its substitutions
D8: K 4.39; S 5.14; P 4.24; E 4.58; T 4.25; N 3.93; H 4.66; C 4.99; G 5.03; I 4.13; Q 4.58; R 5.05; L 4.72; V 4.83; W 4.09
F4: Y 4.6; V 3.57; L 4.58; W 4.5; K 3.66; N 4.74; H 4.55; D 5.08; I 5.19; E 4.31; A 4.68; G 4.83; R 4.67; C 5.49; Q 4.69; M 4.5; S 5.13; P 5.03
G6: Q 4.41; S 4.88; D 4.93; N 4.83; L 4.85; R 4.51; F 4.3; A 4.82; I 4.2; V 4.28; H 4.37; Y 4.58; M 4.68; K 4.79; T 4.81
E7: W 4.54; I 4.49; N 4.68; M 4.69; F 4.42; C 4.38; K 4.01; Q 4.11; P 4.16; A 4.55; Y 4.23; L 3.98; D 4.93; V 3.99; S 5; H 4.66; R 4.69
E1: K 3.59; D 4.19; L 4.16; V 4.25; N 4.12; W 2.89; Y 3.58; A 4.26; C 3.8; M 3.76; S 4.42; T 4.11; I 3.24; F 3.23; Q 4.14; H 3.66; P 4.12
E13: K 4; G 3.77; A 5.59; N 5.1; Q 5.06; I 4.51; L 4.44; C 5.19; R 4.37; D 4.46; H 3.82; F 3.81; P 3.56
T5: F 4.19; H 4.56; P 4.66; Y 4.25; M 4.69; N 4.41; W 4.51; E 4.65; I 4.05; V 3.27; G 4.5; S 4.32; C 5.08
L9: F 3.48; Q 3.82; H 3.51; G 4.03; N 4.1; E 4.54; Y 2.68; R 3.18; P 4.55; W 3.09; I 5; A 4.25; K 2.38; M 4.69; T 4; V 4.68; D 3.87; S 4.49; C 4.43
L12: A 3.23; S 4.59; I 4.14; D 5.07; P 4.82; K 4.01; Q 3.69; G 4.72; M 3.43; E 4.79; C 4.9; Y 1.93; N 4.38; R 3.52; F 3.84
D10: E 5.05; Q 4.89; G 4.73; N 5.33; K 4.35; W 4.02; P 5; F 4.12; L 4.28; Y 3.33; R 5.07; M 3.89; H 4.89; A 5.27; I 4.73; V 5.1
L3: S 5.2; K 4.06; M 5.09; A 4.1; V 4.6; Q 4.62; D 5.09; E 4.08; W 3.55

— the supplement of paper PMC10567573
